The target in test [1] is T1, biotinylated IL-22 with an N-terminal His/FLAG tag (bio.IL-22H/F) (human, UniProt Q9GZX6 34-179, biotinylated (site not stated)).
T1 construct: not shown: N-terminal His/FLAG tag
T1 sequence: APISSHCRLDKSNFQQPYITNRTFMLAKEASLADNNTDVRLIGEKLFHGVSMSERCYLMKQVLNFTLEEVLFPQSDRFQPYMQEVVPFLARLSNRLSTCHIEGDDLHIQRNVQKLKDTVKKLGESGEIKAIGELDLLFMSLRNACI
The test is described as follows: IL-22 receptor complex inhibition assay (bio.IL-22H/F binding to IL-22 receptor complex, DELFIA), scFv. On the procedure:
(§1) Both the IL-22/IL-22R binding assay (described above) and the IL-22/IL-22 receptor complex assay (described below) were used. ScFv concentrations were titrated in order to establish the clone potencies as measured by assay IC₅₀ values. These were determined using GraphPad Prism software and four-parameter logistic equation curve fitting.
(§2) Microtiter plates were coated with an IL-22 receptor complex antibody (1 μg/ml in PBS), and incubated for 1.5 hours at room temperature. Plates were washed three times in PBST, and blocked for 1 hour at room temperature with 2% MPBS. After a further 3 washes, diluted cell conditioned medium containing an IL-22 receptor complex was added and incubated overnight at 4° C. Crude scFv supernatants were prepared as described above. The following day, 25 μl of diluted scFv sample and 25 μl of bio.IL-22H/F (6 ng/ml) were added to the washed plates, and incubated for 1.5 hours at room temperature. Plates were washed 3 times in PBST, then binding of bio.IL-22H/F to the IL-22 receptor complex was detected with Europium-Streptavidin and the DELFIA® reagent kit (PerkinElmer). Time Resolved Fluorescence was measured using a Victor 2™ Plate Reader (Perkin Elmer).

Test [2] addresses T1, biotinylated IL-22 with an N-terminal …. The test is described as follows: DELFIA competition assay: scFv titrated against bio.IL-22H/F binding to the captured IL-22 receptor complex. On the procedure: as §2
Purified scFv from positive clones identified from the screening were tested in the DELFIA® IL-22 receptor complex competition assay as described above. A titration of scFv concentrations was used in order to establish the clone potency as measured by IC₅₀ values in the assay. Fourteen optimized clones were designated 097D09, 062A09, 062G05, 087B03, 367D04, 368D04, 166B06, 166G05, 375G06, 376B10, 354A08, 355B06, 355E04, and 356A11.

Test [3] has the same target. The test is described as above. On the procedure:
as §1, §2
This is another data set of the same source.

The target is the same in test [4]. In words: biotinylated IL-22 binding IL-22 receptor complex competition assay, purified scFv, parent. On the procedure: as §2
(§3) Sequence data for the six parent clones was used to identify the nearest germline sequence for the heavy and light chain of each clone. Appropriate mutations were made using standard site directed mutagenesis techniques with the appropriate mutagenic primers. Mutation of sequences was confirmed by sequence analysis. Purified scFv from the germlined parent clones were tested in the biotinylated IL-22 binding IL-22 receptor complex competition assay as described earlier, in order to establish the clone potency as measured by IC₅₀ values in the assay.

For test [5] the target is unchanged. The test is described as follows: biotinylated IL-22 binding IL-22 receptor complex competition assay, purified scFv, fully germlined. On the procedure: as §2, §3

For 9 molecules, IC50 results are on record in US20070243589A1 (Pfizer, published 2007).

B1: GIL60 scFv (non-germlined parent) (scFv)
scFv: EVQLVESGGGVVRPGGSLRLSCAASGFTFDDYGMNWVRQAPGKGLEWVSGVNGNGGTRDYAASVKGRFTISRDNAKNSLYLQMNSLRAEDTALYYCARGWYSGSFYYFGYWGRGTLVTVSSGGGGSGGGGSGGGGSAQAVLTQPSSVSGSPGQSITISCTGASGDVGAYNFVSWYQQHPGKTPKLIIYDVNKRPSGVSNRFSGSKSGNTASLTISGLQAEDESDYYCSSYTSTFSVVFGGGTKVTVLGAA
B1: the IC50 in test [1] came to 43 nM; in test [2], 30.8 nM; in test [3], 60 nM; in test [4] it was 51 nM.

B2: GIL92 scFv, fully germlined (scFv)
scFv: QVQLVQSGAEVKKPGASVKVSCKASGYTFTDYYMHWVRQAPGQGLEWVGWINPYTGGAFYAQKFRGRVTMTRDTSISTAYMELSRLRSDDTAVYYCAREPEKFDFWGGDNWGRGTLVTVSSGGGGSGGGGSGGGGSAQAVLTQPPSVSGAPGQRVTISCTGSSSNIGAGYGVHWYQQLPGTAPKLLIYGNSNRPSGVPDRFSGSKSGTSASLAITGLQAEDEADYYCQSYDSSLSGYVFGGGTQLTVLSA
Regarding B2, the IC50 in test [5] was found to be 40 nM.

B3: GIL92 scFv (non-germlined parent) (scFv)
scFv: QVQLVQSGAEVKKPGASVKVSCKASGYTFTDYYMHWVRQAPGQGLEWVGWINPYTGGAFYAQKFRGRVTMTRDTSINTAYMELSRLGSDDTAVYYCAREPEKFDFWGGDNWGRGTMVTVSSGGGGSGGGGSGGGGSAQAVLTQPSSVSGAPGQRVTISCTGSSSNIGAGYGVHWYQQLPGTAPKLLIYGNSNRPSGVPDRFSGSKSGTSASLAITGLQAEDEADYYCQSYDSSLSGYVFGTGTQLTVLSAAA
B3: the 50% inhibitory concentration (IC50) was found to be 16 nM in test [1], 15.3 nM in test [2], 40 nM in test [3] and 18 nM in test [4].

B4: GIL01 scFv, fully germlined (scFv)
scFv: QVQLVESGGGLVKPGGSLRLSCAASGFTFSDYYMSWIRQAPGKGLEWVSAISGSGGSTYYADSVKGRITISRDNAKNSLYLQMNSLRAEDTAVYYCARGLWVWDPLDYWGRGTLVTVSSGGGGSGGGGSGGGGSDIQMTQSPSTLSASVGDRVTITCRASEGIYHWLAWYQQKPGKAPKLLIYKASSLASGVPSRFSGSGSGTDFTLTISSLQPDDFATYYCQQYSNYPLTFGGGTKVEIKRA
Take B4: the IC50 in test [5] turned out to be 143 nM.

B5: GIL16 scFv, fully germlined (scFv)
scFv: QVQLVQSGAEVKKPGASVKVSCKASGYTFTSYGISWVRQAPGQGLEWMGWISAYTGNTNYAQKFQGRVTMTTDTSTSTAYMELRSLRSDDTAVYYCARDRGYYDAFDIWGQGTLVTVSSGGGGSGGGGSGGGGSDIQMTQSPSTLSASVGDRVTITCRASEGIYHWLAWYQQKPGKAPKLLIYKASSLASGVPSRFSGSGSGTEFTLTISSLQPDDFATYYCQQYSNYPLTFGGGTKVEIKRA
B5 yielded an IC50 in test [5] of 38 nM.

B6: GIL01 scFv (non-germlined parent) (scFv)
scFv: EVQLVESGGGLVTPGGSLRLSCAASGFTFSDYYMSWIRQAPGRGLEWVSAISGSGGSTYYADSVKGRITISRDNAKNSLYLQMSSLRSEDTAVYYCARGLWVWDPLDYWGRGTLVTVSSGGGGSGGGGSGGGGSDIQMTQSPSTLSASIGDRVTITCRASEGIYHWLAWYQQKPGKAPKLLIYKASSLASGAPSRFSGSGSGTDFTLTISSLQPDDFATYYCQQYSNYPLTFGGGTKLEIKRAAA
notes: also called GIL 1
As for B6, the IC50 in test [1] was determined as 104 nM; in test [2] it was 129 nM; in test [3], 95 nM; in test [4], 124 nM.

B7: GIL60 scFv, fully germlined (scFv)
scFv: EVQLVESGGGVVRPGGSLRLSCAASGFTFDDYGMNWVRQAPGKGLEWVSGVNWNGGTRDYAASVKGRFTISRDNAKNSLYLQMNSLRAEDTALYHCARGWYSGSFYYFGYWGRGTLVTVSSGGGGSGGGGSGGGGSAQAALTQPASVSGSPGQSITISCTGASGDVGAYNFVSWYQQHPGKAPKLIIYDVNKRPSGVSNRFSGSKSGNTASLTISGLQAEDEADYYCSSYTSTFSVVFGGGTKLTVLGA
In test [5], B7 had an IC50 of 82 nM.

B8: GIL16 scFv (non-germlined parent) (scFv)
scFv: QVQLVESGAEVKKPGASVKVSCKASGYTFTSYGISWVRQAPGQGLEWMGWISAYTGNTNYAQKFQGRVTMTTDTSTSTAYMELRSLRSDDTAVYYCARDRGYYDAFDIWGQGTLVTVSSGGGGSGGGGSGGGGSDIQMTQSPSTLSASIGDRVTITCRASEGIYHWLAWYQQKPGKAPKLLIYKASSLASGAPSRFSGSGSGTDFTLTISSLQPDDFATYYCQQYSNYPLTFGGGTKLEIKRAAA
In the case of B8, the half-inhibitory concentration (IC50) was found to be 49 nM in test [1], 25.9 nM in test [2], 55 nM in test [3] and 44 nM in test [4].

B9: GIL68 scFv, fully germlined (scFv)
scFv: QVQLVQSGAEVKKPGASVKVSCKASGYTFSDYYIHWVRQAPGQGLEWMGWVNPDTGGTRYAQKFQGRVTMTRDMSISTAYMELSRLRSDDTAVYYCARDLTGFDPFDIWGQGTLVTVSSGGGGSGGGGSGGGGSASSVLTQPPSVSVAPGKTARITCGGNNFRNKRVHWYQQKPGQAPVLVIYYDSDRPSGIPERFSGSRSGNTATLTISRVEAGDEADYYCQVWDSSTDRPLFGGGTKLTVLGA
On to B9, for which the IC50 in test [5] amounted to 14 nM.

For orientation: IC50 means the midpoint of a concentration-inhibition curve.
